How the values were obtained:
Details in all cases: protein: recombinant; tags: GST (N-terminal, pGEX-4T-3); blunt
MaSPL44 [1] = target: T1, MaSPL44 (UniProt A0A804KAB2 1-473); experiment: EMSA; Chemiluminescent EMSA Kit (Thermo Fisher); buffer, salt, pH and temperature not stated
T1 sequence: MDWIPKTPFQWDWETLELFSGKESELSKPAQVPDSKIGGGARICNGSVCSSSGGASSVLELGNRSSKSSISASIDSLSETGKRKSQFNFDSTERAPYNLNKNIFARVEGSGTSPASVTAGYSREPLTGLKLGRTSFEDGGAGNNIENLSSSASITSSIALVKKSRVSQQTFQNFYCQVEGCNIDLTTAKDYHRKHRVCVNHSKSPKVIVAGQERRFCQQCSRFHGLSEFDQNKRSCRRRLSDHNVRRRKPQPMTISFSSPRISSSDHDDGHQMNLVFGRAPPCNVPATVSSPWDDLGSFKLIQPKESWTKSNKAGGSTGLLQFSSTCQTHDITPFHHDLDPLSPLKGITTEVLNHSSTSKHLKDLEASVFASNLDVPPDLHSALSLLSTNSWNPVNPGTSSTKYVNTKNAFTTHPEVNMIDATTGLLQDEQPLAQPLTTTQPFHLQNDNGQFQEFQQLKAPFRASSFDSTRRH

MaSPL5 [2] = target: T2, MaSPL5 (UniProt A0A804I0H4 1-393); experiment: as above
T2 sequence: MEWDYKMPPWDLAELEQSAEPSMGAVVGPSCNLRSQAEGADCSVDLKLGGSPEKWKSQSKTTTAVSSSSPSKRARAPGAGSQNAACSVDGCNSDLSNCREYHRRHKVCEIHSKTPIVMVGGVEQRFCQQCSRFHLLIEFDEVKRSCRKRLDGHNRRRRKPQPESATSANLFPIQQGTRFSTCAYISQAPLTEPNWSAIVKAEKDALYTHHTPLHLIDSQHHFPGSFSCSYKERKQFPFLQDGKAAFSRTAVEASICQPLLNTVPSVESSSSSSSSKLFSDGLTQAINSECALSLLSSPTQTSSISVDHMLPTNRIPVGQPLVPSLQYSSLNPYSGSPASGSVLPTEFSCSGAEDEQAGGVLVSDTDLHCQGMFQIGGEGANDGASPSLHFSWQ

MaSPL4 [3] = target: T3, MaSPL4 (UniProt A0A804HZD8 1-178); experiment: as above
T3 sequence: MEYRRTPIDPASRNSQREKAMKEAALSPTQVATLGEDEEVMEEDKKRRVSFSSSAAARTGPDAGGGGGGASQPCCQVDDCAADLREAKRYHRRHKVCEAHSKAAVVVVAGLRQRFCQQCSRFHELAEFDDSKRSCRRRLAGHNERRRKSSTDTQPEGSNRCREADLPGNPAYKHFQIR

MaSPL44 [4] = target: T1, MaSPL44; experiment: competition; unlabeled competitor vs biotin-N1 (EMSA); Chemiluminescent EMSA Kit (Thermo Fisher); buffer, salt, pH and temperature not stated
MaSPL5 [5] = target: T2, MaSPL5; experiment: as above
MaSPL4 [6] = target: T3, MaSPL4; experiment: as above

B1: MamiR528pro-probe (dsDNA)
DNA 1: GCGCAGTACAGTGCAGTACTAAGATACTACACAAACCACACAATAGAAGTACCACTATC
DNA 2: GATAGTGGTACTTCTATTGTGTGGTTTGTGTAGTATCTTAGTACTGCACTGTACTGCGC
B1: binds (MaSPL44 [1]); binds (MaSPL5 [2]); binds (MaSPL4 [3]).

B2: MamiR528pro-mut-probe (dsDNA)
DNA 1: GCGCAAAAAAGTGCAAAAATAAGATACTACACAAACCACACAATAGAAAAAACACTATC
DNA 2: GATAGTGTTTTTTCTATTGTGTGGTTTGTGTAGTATCTTATTTTTGCACTTTTTTGCGC
B2: no binding (MaSPL44 [4]); no binding (MaSPL5 [5]); no binding (MaSPL4 [6]).
